# The DeepSol protein solubility set
# Test: soluble on expression in E. coli; label from the status in PepcDB or PDB records
row,Sequence,soluble on expression in E. coli
1,MAAARIPMSDNLPWKTWTPDDLAPPPAEFVPMAESEETIIEEVEPSLEQQLAQLQMQAHEQGYQAGIAEGRQQGHEQGYQEGLAQGLEQGLAEAKAQQAPIHARMQQLVSEFQTTLDALDSVIASRLMQMALEAARQVIGQTPTVDNSALIKQIQQLLQQEPLFSGKPQLRVHPDDLQRVDDMLGATLSLHGWRLRGDPTLHPGGCKVSADEGDLDASVATRWQELCRLAAPGVV,soluble
2,MGSDKIHHHHHHMAKGNKIPLTFHTYQDAATGTEVVRLTPPDVICHRNYFYQKCFFNDGSKLLFGAAFDGPWNYYLLDLKEQNATQLTEGKGDNTFGGFLSPNDDALYYVKNTRNLMRVDLTTLEEKTIYQVPDDWVGYGTWVANSDCTKMVGIEIKKEDWKPLTDWKKFQEFYFTNPCCRLIRVDLVTGEAETILQENQWLGHPIYRPGDDNTVAFCHEGPHDLVDARMWFINEDGTNMRKVKEHAEGESCTHEFWVPDGSAMIYVSYLKDDTNRYIRSIDPVTLEDRQLRVMPPCSHLMSNYDGTLLVGDGSDAPVDVQDDGGYKIENDPFLYVFNLKTGKEHRIAQHNTSWEVLEGDRQVTHPHPSFTPDNKQVLFTSDVDGKPALYLAKVPDSVWN,not soluble
3,MSLNRRHTIKHNFPIVGHFRYLLEKIGPELRQYIVANNREELPFNRRQRSWIYASSKQENNYQGFGTDQDQNSPGFVFIKPSMFSYAVKEGHPNKKKPDFVPCAKIMGAYNKRRRPYRPYSIINISGMSYGSLSARAVESLNKGALKAGCYQNTGEGSLAPHHKHGADIMFHFGTGYFGVRDEHGNFSMSKLKALVEANPCIRAIDLKLSQGAKPGKGGVLPASKITQEIADIRGLPMGKDVISPAYHSVFSNVPEMMDFIENIAQETGLPVGFKSAVGKMEMWVELADRMLEKGYGPDFITIDGGEGGTGAAPPAFADHVSLPFVYAFSNVYKIFAERGLTDRIVFAASGKLGFPESSLMAFALGADVIHVAREAMMSIGCIQAQVCHNNTCPSGVATQNKWLQSGIDVPLKADRLYNYIKNLRKEVLEITHACGYEHPSQMTMTDIDISMGDNNLTMPLVDAYKYNKIPVNFESMQKLADEGHHHHHH,not soluble
4,MSLASIVSVSSYPPPYLLKQETTTEFAKELFQEDFRDIERLLKSFSNGQIEERQFAVPLDWFRQDHSLQEKNDTYIKLATMFSVEVVRQCLQSNVFLKKPVAEEEIDTIVFVSSSGMATPSIEARMMNELPFSPHTKRVPMWGLGCAGGAAGMSRAYEYCRAFPRANVLVVCVELCSLTFQRQDRTKSNLIGASLFSDGVACALVSGDESDVLGRMKMPTRPLILGSSSTLMPDSEQVMGWDVKDTGLHVVFSRDIPNIIRHWLRPNVERFLETYRLSLEQIEAFIAHPGGRKVLEAYEEALSFSDEMTEYSRDILRHHGNMSSPTVLYVLEKFMKDTRDPGQYGLMAALGPGFCSELVLMQWEAVHEGHHHHHH,soluble
5,MTVELCGRWDARDVAGGRYRVINNVWGAETAQCIEVGLETGNFTITRADHDNGNNVAAYPAIYFGCHWGACTSNSGLPRRVQELSDVRTSWTLTPITTGRWNAAYDIWFSPVTNSGNGYSGGAELMIWLNWNGGVMPGGSRVATVELAGATWEVWYADWDWNYIAYRRTTPTTSVSELDLKAFIDDAVARGYIRPEWYLHAVETGFELWEGGAGLRSADFSVTVQKLAAALEIKRASQPELAPEDPEDVEHHHHHH,soluble
6,QAGFNDLFTINNTPAKTATEIYLENFPEQRNPLKSTGVNIVFKAPEGHTLAEPENKAAMDSVVQAIQDNLEGLTNTQRFGNPVELNPKLQQGVIDLMTQRGVPEENARADAANLSLITPDETIGYTTFDIDVPMPADVSDAQRQAITDAMNLGREKGLTVEAGGAGFGDPIVIEETSE,not soluble
7,SSAMGAGPDHLFNLRNNFYLGAYQTAINNSEIANLSPENAVERDCLVFRSYIALGSYQLVISEIDESAATPLQAVKLLAMYLSTPQNKESTISSLKEWLADSTIGNNDTLRLIAGIIFMHEEDYNETLKHTHAGGTMDLYALNVQIFIKMHRAEYAEKQLRVMQQIDEDHTLTQLASAWLNLAVGGSKIQEAYLIFEDFSEKYPMTCLILNGKAVCCMQMGNFDEAETLLLEALNKDAKDPETLANLVVCSLHVGKSSSRHLSQLKLSHPEHILVKRVSSAEDNFERAVQLVA,soluble
8,DGTVVNYVGFQRDITERKEHERRLKALSESVQDLLQADTREEVAEIGVETARTVLGLEANTIHLYNEAERTLEPVAASDGIYDLLEDLPTFTPGDSIAWRVYESGDALAVDDVHADPDIYNPDTPIKSELYLPLGRHGILLAGSGTNAAFDQR,not soluble
9,THVYNYDIPQDPESYVHRIGRTGRAGATGTSVTFVTNWEMDYLRDVEHLTKKRLLPMKPPTEEEAFAGRAAMAEQSIEELVQKTDVAKFEEQVDHLLEQHDAKTLVAALLNEVTKSDASEIKVKITPERPLPR,not soluble
10,MGSDKIHHHHHHMNQEQNDIAIRVSNLSKCYHIYDTPRDRLKQFILPRLHHLTGQTPRQYFREFWALRDVSFEVKKGETIGIIGRNGSGKSTLLQMICGTLNPTSGSITTYGRIAALLELGSGFNPEFTGRENVYMNASVLGLSQEETDARFDDIAAFADIGEFIEQPVKTYSSGMMVRLGFAVQAQVKPDILIVDEALAVGDAKFQAKCFDRLQQLKDGGTSILLVTHSSEQIVTHCSEAILLDGGDVIEHGEPRYVVNHYMDLLFGKERKSYSASAFSTESNSVEPTQDDNLSLNFIDDVFSSHANYNEHEYRWGDGTATILDFYLLTDNEPYPSVITSGQSVVLGVAVRFYEDLVRPILGITIKTKEGVTVYGVNSETLETDEIKVLGSKGTTALIKAEFICRLAPGDYFISLGLATRKGEEIVPHDRRYDAIYLQIAPVTKFFGLVDLGLKLSAQNTSL,not soluble
11,MSWINRIFSKSPSSSTRKANVPEGVWTKCTACEQVLYSEELKRNLYVCPKCGHHMRIDARERLLNLLDEDSSQEIAADLEPKDILKFKDLKKYKDRINAAQKETGEKDALITMTGTLYNMPIVVAASNFAFMGGSMGSVVGAKFVKAAEKAMEMNCPFVCFSASGGARMQEALFSLMQMAKTSAVLAQMREKGVPFISVLTDPTLGGVSASFAMLGDLNIAEPKALIGFAGPRVIEQTVREKLPEGFQRSEFLLEKGAIDMIVKRSEMRQTLASVLSKLTNQPSPFVEPELISEDE,not soluble
12,MGSSHHHHHHGKTIFVIVPTNEEQVAFLEALAKQDELNFDWQNPPTEPGQPVVILIPSDMVEWFLEMLKAKGIPFTVYVEEGGSENLYFQGGGGGGSRPYGATFIAWGLAFALRAWRCLPRERVHMCRAAHRLADAKMRQRGVGKVLMPYTGASRLMPVASYSRGNRLPSCSSTEATTRCHGFLAIGSRSPTPTHQARVDMGDNDITANSSGKTSGAAAGSAPSSCDLFLSASALESSAQFLALTHVASRQEPSSSITDRNAASVTPSGSRSASGRRAPRRSHEPFTCMSRACALDFTTLSEHGSEVPSVEPASLSAMQPTTSSSSRMHGCTGAAMTTVSLPQTPVVSGAVQSPAWLPAELARTFSDSKTPLSVCSQPSKVGPSYSQMDTLSPPTYEEAVLSSSRSSSSPRIAVLSTTMRSQRLSPAVARDGAP,soluble
13,MGSDKIHHHHHHMRGTIMDDLNDLYYFVKVVEHGGFTQAGRALGVPKSTLSRRIAALEAQYDVRLLQRTTRHFTVTETGREFYDRCLGVLVEAEAAREVIERKHAEPQGIVSLSCPTALLEYRVSGLVARFMAIHPKVQVHLEATNRRVDLLSEGIDLALRVRFPPLEDSGLVMRVLGDSPQRLVAAPHLLGGRDLPTSPDELAGVPSVDWGPPRHHLWQLVGPQGVEAQLRHHPRFITDDMHALRDAALHGVGIAQLPCMVVEDDLRDGTLVDVLPGWVPKGGVIHAVFPSRRGLLPRVRLLIDFLAAHIQKD,not soluble
14,MSLAKYKKLFEPYTLNNDVVLKNRLVVAPLTIYDSGPDGELTPAAHNFWRNRFRGFGTWIVPFTNVHPSGIGFESPNAFHEENLPTLKAYATISHEQGAKAIIQLAHAGIHADPAMTKGYDLMGPSNLPYMGVRAMTDSEVREMVNAFAYATELAISAGLDGVEIHGANGWLIQQFVSETYNQRTDHWGGSVEKRFNFPLAIIDAIEAVRHKYHRPDFIVGYRFSPEEPGEVGLTMTETLALVDRLLDKPLQYIHISLWNFYKKIRRGGDVKKTRMEAVHDRINGRLPFIGVGDLFAEEQGLKAFNTGWADLLAVGGSVELNPNLIELIKTGQEDQIQSEFDWNEMDSYRFTPAMLYGTLAGNAMFPKVKEGHHHHHH,soluble
15,MAQENPLWMRHCAISPDGTTIAFTYKGDIFTVPVSGGKATQITTNPAFDTTPIWSPDSKQIAFASDRMGSMDVFIVSKDGGEPRRLTTFSGGETPVAFTDAGHILFTADIMPSTEDAGFPSNGQFQQIYQIPVSGGRPVMFSSMPMECISINKEGTILYQDKKGYEDYWRKHQKSPIARDIWMLRPGQTPRYEKQTTFIGEDREPVWAPDGKSFYYLSEENGTFNVYQRTPGSDTSKQVTHHKQHPVRFLEHHHHHH,not soluble
16,GMQATTATPHDIVFLFDCDNTLLDNDHVLADLRAHMMREFGAQNSARYWEIFETLRTELGYADYLGALQRYRLEQPRDTRLLLMSSFLIDYPFASRVYPGALNALRHLGARGPTVILSDGDVVFQPRKIARSGLWDEVEGRVLIYIHKELMLDQVMECYPARHYVMVDDKLRILAAMKKAWGARLTTVFPRQGHYAFDPKEISSHPPADVTVERIGDLVEMDAEWLLAEKR,soluble
17,MAHHHHHHMSTNSAKILSRVREAMKLHSINALIVPSSDPHNSEYVMDSYKCRGFLTNFNGSAGTCLITMEEAYLWTDGRYWLEAGHCLYPEWQLMRDGHPGVPSLEDFVRLNLQPDLLVGMNDNLATVAEWERRRKAINLVPIPEIVRPLMPQNSDAKAEMLSIRPEQFCGQTREEKVMALVEELKGQKCEAMILSALDEVAWLTNLRGSDVPYNPVFYSYALVRSAPDPTVALFVDSAKVSSPVEAELTQSGRSVVSVSLHPYEALEDYVRALPAGTAFLVDEYQTSQRLYSLLESCKMKVNRVKCGPAQRLKAVKNAVEIEGFRRCHVRDGVALTRYLAWLHDMIVVKGDTTITECSGADVVEGFRREQEHFVQLSFPTISSVGPNGAVVHYTPPKEGSATIVPDQLYLVDSGAQYLDGTTDVTRTVCFNPPSDEERQAYTLVLKGHLALHNAVWPTGTTGHRLDALARVHLWRYGLDYAHGTGHGVGSFLNVHEGPQGIGYRPTPTEATLAAGMIMSNEPGYYKAGKYGIRIENLEVIVRAPTRHSQEGFLTFEALTMVPLCRDLIDVSMLTADEVRLVNDYHRTVRDALTPHLRRVNDSCALAYVERHTAELCALEGGC,soluble
18,MATKKTFTDETYFKLSEAVYQDGTLNSKKINIELSDRTKSNWKVVSKLNDRATNTQAFAVIPEEKGKDGKIYYNHNNMIFVYRGTKESKDFGSDIINVFAGRNSRTSLDRKSKNPFQVSKEWTEEVLKEFNPKNPTSTGHSLGGALSHYNSILYDFNATTYAAPNIYQLLPEDKQKKVRDGFYNNSIIDFTHDDDMIGTFDQFSSPIIGSQYIAERNNVKVGAKGLFGAIPGHYNETFEGCFSSDGTMKLKVDVDSIIKHAQDIDDIIQSLQTNNADLENLEEKLQIGSKKIQNQLEEEIRIGGAYSELTTWDIDDVLTELCTKYKNGVYCFYNPNEFEKYYEMNHQTRRLLKNFQIELIDAAQSFRETDTRLGKWISNNN,not soluble
19,MGSDKIHHHHHHMHFTPALKPGKLLKRYKRFLADVQLEDGSEITVHCPNTGSMRNCLFPGETLWFSTSSNTKRKYAHTWELMTTPTGALIGIHSGNANALVEEALNKGIITELTGYDSLRREVKYGDENSRIDILLECAQKTACYIEVKSCTLQENGQGYFPDAVSLRGQKHLRELMHMASLGHRAVLLFVVQHTDIMSVAPAAHIDPEYANLLKKSVLSGVEVLAYRCEISPSEIHLAQSCPVRV,not soluble
